This passage reports IC50 (µg/ml), HCMV TB40 neutralization on ARPE-19 epithelial cells and IC50 (µg/ml), HCMV TB40 neutralization on MRC-5 fibroblasts results from patent US20230174626A1.

The experiment has as its target HCMV glycoprotein H (gH) on TB40 virus (Human Cytomegalovirus (HCMV), TB40 virus). Briefly: cell-based or functional assay.

As to mAb MSL-109 (antibody), the IC50 (µg/ml), HCMV TB40 neutralization on ARPE-19 epithelial cells was determined as 0.89 µg/mL and the IC50 (µg/ml), HCMV TB40 neutralization on MRC-5 fibroblasts was 0.46 µg/mL.
